B1: NETO1 (parent)
chain: GFSPIIGRFCGQQNPPVIKSSGRF

Variants of: B1
Assay: protein stability index of a GFP-peptide fusion (GPS, HEK-293T) (PSI 1-6); higher = more stable
Details: c terminus: a fixed tail appended
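Further: lentivirally expressed fusions sorted by FACS into six bins by GFP to DsRed ratio, PSI derived from sequencing read proportions per bin multiplied by bin number.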

Protein stability index, by site and new letter:
C10: H 2.38, W 2.3, N 3.13, T 3.29, V 2.46, A 3.07, L 2.79, S 2.9, K 2.93, R 2.63, P 3.47, F 2.51, Q 2.4
G11: T 2.58, S 2.38, M 1.51, Q 2.38, V 2.36, L 2.31, R 1.63, F 2.03, K 1.91, D 2.76, W 2.26, H 1.91, I 1.83, Y 1.89, E 2.54
P16: F 1.85, L 1.59, N 1.73, Y 2.24, M 2.16, K 2.03, H 2.18, V 2.26, A 2.03, D 2.1, C 2.02, I 1.86
Q12: L 1.75, S 2.03, P 2.75, N 2.35, I 2.16, C 2.32, V 2.15, E 2.35, D 2.53, F 1.8, T 2.26, A 1.57, M 1.94, G 2.26, K 2.33, R 1.78
V17: Q 2.52, L 1.66, N 2.5, E 2.54, G 2.62, W 2.42, M 2.88, D 2.75, A 2.04, K 2.5, C 1.62, F 1.66
F9: Y 1.98, V 2.66, N 2.42, S 1.98, P 1.95, I 2.45, M 2.17, A 2.87, T 1.75, G 1.97, K 2.49, Q 2.38, R 2.07, H 1.69, L 2.49
S20: V 1.68, P 2.45, A 2.67, R 2.44, L 2.59, D 1.55, Y 1.43, C 2.18, E 2.11, N 2.45, G 1.9, I 1.58, M 1.66, Q 2.67, H 2.16, W 1.99
K19: R 1.85, N 1.65, F 1.69, Q 1.42, L 2.3, P 2.37, S 2.48, G 3.23, W 1.78, C 1.93, V 1.48, T 1.94, E 2.27, A 2.27, Y 1.91, D 2.26
I5: G 2.31, H 2.59, A 2.05, S 2.62, L 2.17, T 2.36, R 2.79, E 3.22, M 2.19, N 2.34, K 2.75, D 2.92, Q 2.52, C 2.12, F 1.79
S3: L 1.68, G 2.2, W 1.75, D 2.41, N 2.08, F 2.56, P 1.75, E 2.78, H 2.03, A 2.6, T 2.4, Y 1.53, C 1.22, Q 2.49, V 2.03
I18: L 2.17, M 2.17, N 3.43, D 2.73, K 2.72, P 2.92, G 2.24, Q 2.78, C 2.65, S 2.65, Y 2.43, F 1.95, T 2.15, V 3.01
F2: H 2.15, G 2.54, M 2, Y 2.02, E 3.09, R 2.16, V 2.13, T 2.46, Q 2.91, A 2.35, D 2.68, I 2.25, L 2.55, S 2.75, W 1.52
F24: A 2.42, T 2.65, Q 3, R 2.66, C 2.48, H 2.26, D 2.98, N 2.64, V 2.42, Y 2.4, I 2.23, G 3.51, W 1.6, K 3.64
R23: M 1.96, P 3.38, S 1.94, I 1.65, W 2.26, A 1.35, L 2.35, F 1.89, T 1.64, Y 2.6, V 2.22, N 2.09, C 1.44
N14: E 2.38, W 1.87, G 2.19, Q 3.08, V 1.24, P 2.21, K 2.04, I 1.92, L 1.66, D 2.48, Y 1.99, R 2.12, S 2.35, F 2.26, M 1.8
I6: T 2.39, K 3.17, A 2.1, E 3.28, P 2.95, H 2.77, S 2.94, V 2.15, Q 2.38, W 2.68, Y 1.91, L 2.55, N 2.37, G 2.58
Q13: D 1.96, H 1.88, N 2.31, I 2.17, S 1.63, A 1.83, Y 2.22, T 3.12, R 2.64, E 2.22, W 1.61, P 2.31
R8: C 1.61, G 2.16, N 2.04, P 2.61, Q 2.19, F 1.62, M 1.76, I 2.43, A 2.72, H 1.79, D 2.63, T 2.18
P4: A 2.12, T 1.26, M 2.36, K 2.59, Y 2.44, Q 1.91, F 2.09, E 2.33, C 1.88, G 1.74, W 1.91, N 1.69, S 1.99, R 1.82
G22: P 2.15, C 1.97, K 2.54, V 1.63, T 2.11, R 2.19, E 1.63, W 2.14, L 2.81, N 2.2, D 2.06
G1: I 2, F 1.86, E 1.7, H 1.66, P 2.25, T 1.8, S 2.04, M 1.98, R 1.98, K 2.18, A 2.17, Q 2.03, W 2.02, N 1.85, V 1.93
G7: I 2.88, K 1.89, E 2.39, A 1.73, M 1.56, R 2.25, N 2.38, D 2.66, W 1.42, F 2.03, S 2.3, Y 1.64
P15: S 1.93, M 1.99, L 2.59, C 2.19, I 2.1, W 2.13, A 2.44, Y 2.1, T 2.04, H 2.01, N 2.52, F 2.34, E 2.27, Q 1.96, R 1.65
S21: L 1.75, F 1.68, D 1.82, E 2.22, N 2.09, C 2.42, G 2.53, Y 2.36, A 2.88, R 2.26, T 2.36, P 2.25, I 1.57
